The supplement of paper PMC10126150
± gives the standard deviation of the averaged measurements.

Tested on: ATP
Assay: switch fluorescence ratio, 500 uM ATP over buffer (Cy3 cluster intensity, sum of 5 cycles each) (fold (ratio)); higher = stronger signal-on switching upon ATP binding; sequences stand for … in TCGTCGGCAGCGTCAGATGTGTATAAGAGACAGTTTTTTTTTTTTTTTTTTTTTTTTT…TC
Settings: aptamer strand: ATP DNA aptamer (quencher-CACCTGGGGGAGTATTGCGGAGGAAGG + anchor), 100 nM annealed; ATP concentration: 500 uM
Procedure, shortened: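 Five buffer/ATP imaging cycles were run on Cy3-labelled switching-strand clusters on a modified Illumina MiSeq flow-cell, with NaOH stripping and re-annealing between cycles. In each cycle, clusters annealed to 100 nM quencher-labelled ATP aptamer were imaged in selection buffer, then after 15 min with 500 uM ATP at 22 °C. Per cluster, the fluorescence ratio is summed target-cycle over summed buffer-cycle Cy3 intensity, averaged per switch-domain sequence. Only clusters within 100-1000 RFU were kept.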
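Note: ATP exposure 15 min at 22 °C before imaging.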

| Sequence | switch fluorescence ratio |
| --- | --- |
| GGGTTTGATC | 0.9749 ± 0.008 |
| TGCATTGGGA | 1.02 ± 0.043 |
| TTTCAAATTC | 0.981 ± 0.026 |
| AATTGTGTTG | 0.98 ± 0.031 |
| CTAGAAGGCG | 1.02 ± 0.052 |
| TTTTTATGGG | 1.03 ± 0.077 |
| TTTTCATCTG | 1.03 ± 0.098 |
| ATGCGGTCGG | 1.02 ± 0.045 |
| TTGGGGTGGC | 0.965 ± 0.061 |
| TGGTTTTGGA | 0.976 ± 0.056 |
| AGATAAACG | 0.984 ± 0.056 |
| AATTGGGTTT | 0.99 ± 0.023 |
| CATTCCGAGA | 1.4 ± 0.024 |
| ATGGGTGGTT | 0.995 ± 0.032 |
| AATTGTTGGT | 1.01 ± 0.036 |
| TTTATGGATT | 1.006 ± 0.01 |
| TCGAGGAGTT | 1.012 ± 0.01 |
| TATATGACTT | 1 ± 0.012 |
| TCATGGTATT | 1.01 ± 0.011 |
| AAGTGAGAAA | 0.983 ± 0.066 |
| TCAACGATAT | 1.07 ± 0.075 |
| CGAGATCAAG | 0.971 ± 0.013 |
| GAGATCAGTT | 0.9808 ± 0.0058 |

| Sequence | switch fluorescence ratio |
| --- | --- |
| GGATTTAAAA | 1.05 ± 0.044 |
| CAGTTTCCTC | 1.08 ± 0.015 |
| AGTTTTTTTT | 0.997 ± 0.028 |
| AAATGCTACT | 1.02 ± 0.028 |
| AGGTATTGGG | 1.02 ± 0.043 |
| GTTTTGACAT | 0.993 ± 0.0013 |
| GTGGATTGGT | 0.974 ± 0.013 |
| CGTGTGGGGA | 1.02 ± 0.045 |
| AGACTGCATT | 1.06 ± 0.03 |
| TTTTTTGCGT | 0.987 ± 0.047 |
| TATAAAATCT | 1.02 ± 0.082 |
| TATAAGTACA | 1.38 ± 0.04 |
| CGAGGGGGTA | 1.02 ± 0.077 |
| TTAAGTTGAG | 0.983 ± 0.021 |
| TTGGGTACGG | 1.03 ± 0.016 |
| TGGGGAAAGT | 1.03 ± 0.036 |
| AATTAGGTTG | 0.967 ± 0.025 |
| CGTTGTGGAA | 1.006 ± 0.0056 |
| CAAGGGGTGG | 0.996 ± 0.019 |
| AGAGGGGAGG | 0.988 ± 0.0054 |
| GTTTCAATGC | 1.31 ± 0.1 |
| AGGTTAGACG | 1.01 ± 0.04 |
| TGGGGTATTT | 0.997 ± 0.04 |

| Sequence | switch fluorescence ratio |
| --- | --- |
| GAGGTTTCTA | 0.993 ± 0.038 |
| CAGTATATTG | 0.995 ± 0.025 |
| GGCTATCGGG | 1.02 ± 0.046 |
| AACGTGTACG | 1.01 ± 0.065 |
| TAAGCCGAGG | 0.987 ± 0.016 |
| TGACGGGTAC | 1.87 ± 0.087 |
| GTCTTTTAGG | 0.9981 ± 0.0086 |
| TGGTGGTGTA | 0.954 ± 0.035 |
| TCCCGGGTTA | 1.01 ± 0.013 |
| AAAAGGGGTG | 1.09 ± 0.025 |
| ATGGTCAGAT | 0.994 ± 0.027 |
| AATGGGTCAT | 1.004 ± 0.0013 |
| TGAGGGTACA | 0.984 ± 0.017 |
| GAGGTTAGAG | 0.9796 ± 0.0026 |
| CCGGGCCGAA | 1.05 ± 0.017 |
| TAGGTGTATG | 1.01 ± 0.033 |
| GATGCACTCC | 1.911 ± 0.0078 |
| GGTGAGATGG | 1 ± 0.069 |
| GCGCTAATTT | 1.28 ± 0.59 |
| AGGCGGTGCG | 1.02 ± 0.03 |
| TATACAATTG | 1.01 ± 0.017 |
| TCACCAGGGG | 1.76 ± 0.72 |
| TGTAGTTTGT | 0.973 ± 0.034 |

| Sequence | switch fluorescence ratio |
| --- | --- |
| CCCCAGGCAT | 2.68 ± 0.5 |
| TTGTTTAATT | 0.979 ± 0.022 |
| ACCTTTAAGC | 1.106 ± 0.01 |
| TTATGGGGCG | 1.02 ± 0.035 |
| CCTGAAGTTG | 1.18 ± 0.21 |
| GTTGATTAGC | 0.981 ± 0.077 |
| TCTTATTTGG | 1.01 ± 0.05 |
| ATGGGTAGAG | 1 ± 0.022 |
| GCGAATAGTT | 1.005 ± 0.0067 |
| CAGCGAGTGG | 1 ± 0.036 |
| TTCCTGAAAA | 0.981 ± 0.016 |
| AAGAGATATA | 1.008 ± 0.0037 |
| AAAATTTTTT | 1.07 ± 0.19 |
| TCAGACATCG | 1.01 ± 0.035 |
| GGTTACGCTA | 1.11 ± 0.074 |
| GGGGGCAGGT | 1.03 ± 0.039 |
| GTTAAATGGT | 1 ± 0.031 |
| TTTTGACTTT | 0.998 ± 0.023 |
| CTTTGCGTTT | 1.02 ± 0.093 |
| TGTGGAAGGT | 0.9999 ± 0.0078 |
| TTTATTCTTT | 1 ± 0.021 |
| TTAGGGGCAA | 1.04 ± 0.073 |
| TTTATAGAGC | 1.03 ± 0.054 |

| Sequence | switch fluorescence ratio |
| --- | --- |
| TTTTGTGCTT | 1.04 ± 0.074 |
| AGAGTAGAGG | 1.01 ± 0.028 |
| TTTTGGTTG | 0.947 ± 0.045 |
| TTTCATGATG | 0.998 ± 0.02 |
| AAACTAGGGT | 0.9975 ± 0.0077 |
| ATATAAAGGG | 0.996 ± 0.025 |
| TTGGCCGTAG | 1.01 ± 0.028 |
| GAACGAGAGG | 1.01 ± 0.012 |
| TGATGTGCA | 1.01 ± 0.17 |
| GCCAATGGGG | 0.989 ± 0.026 |
| TCTCGGAAAA | 0.996 ± 0.021 |
| GGTTATGTGT | 0.964 ± 0.014 |
| TGGCAGACTC | 1.28 ± 0.013 |
| CGGCCCGCGA | 1.94 ± 0.96 |
| ATGAGCACAA | 1.09 ± 0.017 |
| TAAAGGATAT | 1.01 ± 0.014 |
| TGCGTTATTA | 0.999 ± 0.017 |
| AGGCGGTGGC | 1.02 ± 0.11 |
| GGCCTAGAGG | 1.01 ± 0.021 |
| TTCGGATAAT | 0.98 ± 0.011 |
| TTGATTATAT | 1.02 ± 0.012 |
| CCCTTATGGT | 0.9932 ± 0.0086 |
| TTTTTTTTCT | 1.02 ± 0.067 |

| Sequence | switch fluorescence ratio |
| --- | --- |
| TACTCTTCAT | 1.12 ± 0.15 |
| CAGTTTTCTT | 1.01 ± 0.062 |
| CCAACCTGAT | 1.31 ± 0.18 |
| CGGAGGGGAA | 1 ± 0.014 |
| AGTGGTATGA | 1.01 ± 0.048 |
| TGTGATGGTT | 1.005 ± 0.0013 |
| TTTTCAATGT | 1.04 ± 0.048 |
| TCCATCGGGA | 1.14 ± 0.14 |
| TCGGTGGGGG | 1.01 ± 0.051 |
| ATATTTTGTT | 1.03 ± 0.066 |
| GCATGAAACT | 1.03 ± 0.034 |
| ACGCTTTTGG | 1.03 ± 0.023 |
| ACGGGGCATC | 1.07 ± 0.013 |
| TAATTTTTT | 1 ± 0.038 |
| CGCATGTACG | 1.14 ± 0.16 |
| GTTGTTTGAT | 0.997 ± 0.052 |
| CTTGTAACGG | 0.975 ± 0.01 |
| CCCTATTTTT | 1.01 ± 0.035 |
| CGGGTTTGGG | 0.983 ± 0.016 |
| GGTCATAGAC | 0.991 ± 0.026 |
| CGGGGTGCTG | 1.03 ± 0.03 |
| AAAATCGAAA | 0.99 ± 0.015 |
| GGAATTCGGG | 1.01 ± 0.025 |

| Sequence | switch fluorescence ratio |
| --- | --- |
| CAGCCTTGTG | 1.013 ± 0.0079 |
| GCATTATTCG | 1.059 ± 0.0079 |
| CAAGAGGGTC | 1.04 ± 0.067 |
| AGGCCGAGTC | 1.02 ± 0.054 |
| TTTTTGTATG | 1.02 ± 0.034 |
| AGTTAAAAAT | 0.996 ± 0.022 |
| TTGTTGAGGC | 1.06 ± 0.1 |
| CCAATTATGT | 1.01 ± 0.025 |
| ATTTGGGGGG | 1 ± 0.047 |
| GGGTTGACGG | 0.986 ± 0.057 |
| TGGGATATGG | 0.996 ± 0.029 |
| AGGGAGAAAC | 0.984 ± 0.028 |
| GATCAGAGGA | 1.05 ± 0.039 |
| TTTACTTTTT | 1.01 ± 0.027 |
| TCTTGGCGCC | 0.97579 ± 0.00051 |
| TGAAAAAAAG | 0.973 ± 0.04 |
| AGGTATTGG | 1.008 ± 0.0055 |
| TATCAGTTCG | 0.9961 ± 0.006 |
| TGGGTTTTGC | 0.994 ± 0.044 |
